In one assay the target is hIL-2Rα (human) (UniProt P01589). Briefly: SPR, Biacore T200; hIL-2Rα on CM5 chip through His capture kit, binder as analyte.
The target of assay [1] is IL-2Rβγ on HEK-BLUE IL-2 reporter cells (UniProt P14784). Briefly: cell-based or functional assay.
Assay [2] deals with hIL-2Rαβγ on CTLL-2 cells (human) (UniProt P01589). Briefly: cell-based or functional assay.
The target of the next assay is hIL-2Rβγ (human) (UniProt P14784). As to the kind of experiment: SPR, Biacore T200; hIL-2Rβγ as analyte, single cycle kinetics; three-step format as the filing describes it. In general terms: Surface plasmon resonance follows binding to a sensor surface in real time, without labels.
Chain of hIL-2Rβγ (human) (P14784 27-239, chain 1 of 2): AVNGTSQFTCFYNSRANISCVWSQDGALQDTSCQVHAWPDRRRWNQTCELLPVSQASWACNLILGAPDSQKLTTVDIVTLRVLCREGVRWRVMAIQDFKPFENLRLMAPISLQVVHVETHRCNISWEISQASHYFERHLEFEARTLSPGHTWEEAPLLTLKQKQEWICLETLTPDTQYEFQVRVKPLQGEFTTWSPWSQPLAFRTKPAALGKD
Chain of hIL-2Rβγ (human) (P31785 23-254, chain 2 of 2, further chain): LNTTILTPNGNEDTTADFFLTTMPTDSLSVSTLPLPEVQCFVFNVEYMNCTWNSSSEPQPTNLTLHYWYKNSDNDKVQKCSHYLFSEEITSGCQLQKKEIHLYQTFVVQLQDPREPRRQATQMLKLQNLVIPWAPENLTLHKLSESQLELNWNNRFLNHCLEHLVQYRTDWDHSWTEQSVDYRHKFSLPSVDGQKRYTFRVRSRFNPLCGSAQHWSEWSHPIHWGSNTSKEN
The target of another assay is hIL-2Rβ (human) (UniProt P14784). Briefly: SPR, Biacore T200; hIL-2Rβ as analyte; three-step format as the filing describes it.
Chain of hIL-2Rβ (human) (P14784 27-239): as the sequence (P14784 27-239, chain 1 of 2) above
Assay [3] has as its target hCD73 (human) (UniProt P21589). As to the kind of experiment: SPR, Biacore T200; binder captured on CM5 chip by human antibody capture kit, CD73 as analyte.
The target of the next assay is cyCD73. The assay is described as above.
The target in assay [4] is hCD73 (human) (UniProt P21589). Briefly: cell-based or functional assay.
Chain of hCD73 (human) (P21589 27-549 limits assumed): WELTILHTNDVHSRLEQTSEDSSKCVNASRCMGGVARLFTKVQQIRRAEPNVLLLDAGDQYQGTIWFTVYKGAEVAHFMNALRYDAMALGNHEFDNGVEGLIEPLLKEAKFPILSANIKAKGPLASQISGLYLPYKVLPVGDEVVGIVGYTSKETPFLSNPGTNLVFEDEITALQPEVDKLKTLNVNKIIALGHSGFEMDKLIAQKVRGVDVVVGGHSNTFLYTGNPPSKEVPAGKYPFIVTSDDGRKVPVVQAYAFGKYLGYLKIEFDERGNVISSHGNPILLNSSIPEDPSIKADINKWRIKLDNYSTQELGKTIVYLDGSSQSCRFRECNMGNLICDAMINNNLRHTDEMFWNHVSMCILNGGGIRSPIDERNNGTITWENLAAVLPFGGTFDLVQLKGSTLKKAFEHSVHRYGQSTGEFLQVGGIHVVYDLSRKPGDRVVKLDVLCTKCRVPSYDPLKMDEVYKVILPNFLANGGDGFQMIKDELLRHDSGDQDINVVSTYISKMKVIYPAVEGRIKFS
For assay [5], the target named is membrane-bound human CD73 (human) (UniProt P21589). As to the kind of experiment: cell-based or functional assay.
Chain of membrane-bound human CD73 (human) (P21589 27-549 limits assumed): as above

Chain of hIL-2Rαβγ on CTLL-2 cells (human) (P01589 22-272, chain 1 of 3): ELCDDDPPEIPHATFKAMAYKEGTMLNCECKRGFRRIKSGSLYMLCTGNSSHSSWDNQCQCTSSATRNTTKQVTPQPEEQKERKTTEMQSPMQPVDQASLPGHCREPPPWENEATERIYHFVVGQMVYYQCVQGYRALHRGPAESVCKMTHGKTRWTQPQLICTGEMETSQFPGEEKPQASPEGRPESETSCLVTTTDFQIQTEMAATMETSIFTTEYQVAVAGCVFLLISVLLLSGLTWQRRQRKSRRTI
Chain of hIL-2Rαβγ on CTLL-2 cells (human) (P14784 27-551, chain 2 of 3, further chain): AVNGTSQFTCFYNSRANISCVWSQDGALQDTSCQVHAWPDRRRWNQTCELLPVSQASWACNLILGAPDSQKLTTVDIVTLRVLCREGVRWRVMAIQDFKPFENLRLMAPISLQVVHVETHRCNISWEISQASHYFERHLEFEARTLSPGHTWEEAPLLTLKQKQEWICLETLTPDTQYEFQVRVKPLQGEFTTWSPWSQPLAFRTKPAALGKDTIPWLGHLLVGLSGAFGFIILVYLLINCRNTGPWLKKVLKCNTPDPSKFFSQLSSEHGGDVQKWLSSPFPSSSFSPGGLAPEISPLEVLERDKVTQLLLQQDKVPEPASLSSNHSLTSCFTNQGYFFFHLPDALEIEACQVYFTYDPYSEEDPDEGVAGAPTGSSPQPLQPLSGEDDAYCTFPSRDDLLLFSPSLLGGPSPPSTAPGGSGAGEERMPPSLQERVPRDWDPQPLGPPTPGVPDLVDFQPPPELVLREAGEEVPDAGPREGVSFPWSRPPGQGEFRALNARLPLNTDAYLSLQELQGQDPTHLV
Chain of hIL-2Rαβγ on CTLL-2 cells (human) (P31785 23-369, chain 3 of 3, further chain): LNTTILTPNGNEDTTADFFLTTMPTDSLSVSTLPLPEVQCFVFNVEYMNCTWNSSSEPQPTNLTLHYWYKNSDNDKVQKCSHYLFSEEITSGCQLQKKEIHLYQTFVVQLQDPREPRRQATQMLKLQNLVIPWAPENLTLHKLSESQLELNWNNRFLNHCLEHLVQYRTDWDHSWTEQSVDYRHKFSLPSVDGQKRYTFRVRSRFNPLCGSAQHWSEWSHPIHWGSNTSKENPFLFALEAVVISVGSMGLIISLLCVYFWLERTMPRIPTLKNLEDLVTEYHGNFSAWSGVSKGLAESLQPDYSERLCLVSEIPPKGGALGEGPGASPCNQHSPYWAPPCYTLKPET
Chain of IL-2Rβγ on HEK-BLUE IL-2 reporter cells (P14784 27-551, chain 1 of 2): as the sequence (P14784 27-551, chain 2 of 3, further chain) above
Chain of IL-2Rβγ on HEK-BLUE IL-2 reporter cells (P31785 23-369, chain 2 of 2, further chain): as the sequence (P31785 23-369, chain 3 of 3, further chain) above
Chain of hIL-2Rα (human) (P01589 22-213): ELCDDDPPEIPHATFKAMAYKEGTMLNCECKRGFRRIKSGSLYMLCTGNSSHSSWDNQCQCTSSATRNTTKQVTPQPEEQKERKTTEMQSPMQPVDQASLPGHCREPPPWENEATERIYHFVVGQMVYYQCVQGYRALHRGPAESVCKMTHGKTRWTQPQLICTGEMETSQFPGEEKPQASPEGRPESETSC

“Aldesleukin (trade name: PROLEUKIN, Novartis) (ligand)”: the equilibrium dissociation constant (Kd) turned out to be 49.6 nM in the assay with hIL-2Rα (human), 0.01 nM with hIL-2Rβγ (human) and 2080 nM in the assay with hIL-2Rβ (human). Moreover, the EC50, SEAP reporter (JAK-STAT pathway activation) in HEK-BLUE IL-2 reporter cells in assay [1] came out at 0.0103 nM. This substance showed an EC50, CTLL-2 cell proliferation (WST-1 absorbance) in assay [2] of 0.08 nM.

With “Oleclumab (Astrazeneca), produced on order from Ybiologics, Inc. (antibody)”, the equilibrium dissociation constant (Kd) stood at 0.101 nM in the assay with hCD73 (human) [3] and 0.349 nM with cyCD73. In addition, the IC50, inhibition of soluble CD73 enzyme activity (AMP-Glo assay, recombinant human CD73) in the assay with hCD73 (human) [4] was determined as 0.03 nM. In addition, the IC50, inhibition of membrane-bound CD73 enzyme activity on MDA-MB-231 cells (adenosine assay) in assay [5] is 1.47 nM.

For orientation: Kd means a measure of binding affinity in units of concentration. A high value points to a looser complex.

Values taken from patent US20260061032A1.
